From patent publication US20160304856A1 (AVANTGEN, published 2016)

Biological target: T1, Prostate-Specific Antigen (PSA) (human, UniProt P07288 25-261)
T1 construct: Used biotinylated or PE-labelled in flow cytometry and coated on plates in ELISA; also called PSA antigen
Assay: method and antibody format not stated

T1 sequence (P07288 25-261 limits assumed): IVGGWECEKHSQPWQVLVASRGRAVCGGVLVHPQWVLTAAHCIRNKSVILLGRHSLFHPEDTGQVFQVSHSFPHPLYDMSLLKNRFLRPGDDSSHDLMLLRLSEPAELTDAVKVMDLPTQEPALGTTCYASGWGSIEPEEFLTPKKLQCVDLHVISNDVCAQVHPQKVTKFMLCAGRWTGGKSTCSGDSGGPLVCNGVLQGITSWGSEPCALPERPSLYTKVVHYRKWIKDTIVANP

Kd: 0.08 nM
B1: novel anti-PSA antibody (antibody, V domains shown)
VH: EVQLLESGGGLVQPGGSLRLSCAASGFTVSNYAMSWVRQAPGKGLEWVGDIYPTSGYTDYADSVKGRFTISRDNSKNTLYLQMNSLRAEDTAVYYCARWGYDYKYVASEGSWLFDYWGQGTLVTVSS
VL: DIQMTQSPSSLSASVGDRVTITCRASQVSSTSLNWYQQKPGKAPKLLIYGASNLASGVPSRFSGSGSGTDFTLTISSLQPEDFATYYCQQYGHPPYTFGQGTKVEIK
notes: Identified from a single chain library
